Target: ULK1 (UniProt O75385)
Assay: FLAG co-IP, ULK1 blot
Conditions: reference: Flag-CHK2 WT, EBSS; sites T68

CHK2 (from UniProt O96017) Flag-CHK2 T68A, EBSS
binding against the reference: weaker

Source: PMC9219861
